Experimental data from patent US20140030286A1 (COMMISSARIAT A L ENERGIE ATOMIQUE ET AUX ENERGIES …, published 2014).

Experiments:
[1] = biological target: the molecule itself; test: gel filtration (S200 10/300GL), self-association
HisIn = biological target: T1, HisIn (Streptococcus pneumoniae); test: electrospray mass spectrometry of the purified complex (measured 26772, calculated 26788.16)
T1 construct: Recombinant, made in E. coli from pACYCDuet-HisIn; also called In peptide; In protein
T1 chain: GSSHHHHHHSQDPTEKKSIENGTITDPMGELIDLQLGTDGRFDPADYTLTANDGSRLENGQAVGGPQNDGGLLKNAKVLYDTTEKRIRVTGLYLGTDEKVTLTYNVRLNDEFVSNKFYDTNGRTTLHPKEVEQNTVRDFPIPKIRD

[2] = biological target: T2, In (derivative of In without His tag, co-expressed with HisJo) (Streptococcus pneumoniae); test: electrospray mass spectrometry of the purified complex (measured 25589, calculated 25606.03; loss of 17 Da)
T2 construct: Expressed from MCSII of pETDuet (pETDuet-In, pETDuet-HisJoIn); also called In peptide
T2 chain: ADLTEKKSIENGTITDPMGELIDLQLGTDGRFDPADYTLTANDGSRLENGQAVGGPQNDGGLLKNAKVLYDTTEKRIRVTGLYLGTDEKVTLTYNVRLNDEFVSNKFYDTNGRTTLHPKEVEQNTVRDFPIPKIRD

[3] = biological target: the molecule itself; test: SDS-PAGE with and without 25 mM DTT, disulphide-linked homodimer (FIG. 12)

B1: FusJoIn (other)
chain: GSSHHHHHHSQDPSDQYPQTGTYPDVQTPYQIIKVDGSEKNGQHKALNPNPYERVIPEGTLSKRIYQVNNLDDNQYGIELTVSGKTVYEQKDGSTPGSVTEKKSIENGTITDPMGELIDLQLGTDGRFDPADYTLTANDGSRLENGQAVGGPQNDGGLLKNAKVLYDTTEKRIRVTGLYLGTDEKVTLTYNVRLNDEFVSNKFYDTNGRTTLHPKEVEQNTVRDFPIPKIRD
notes: Single chain with the isopeptide bond inside the chain; Used as the control for the dimerisation of Jo-B1CK-In; also called FusJoIn complex; Jo-In fused via a linker of 7 amino acids
[1]
  binding result: no binding

B2: HisJo (peptide)
chain: GSSHHHHHHSQDPSDQYPQTGTYPDVQTPYQIIKVDGSEKNGQHKALNPNPYERVIPEGTLSKRIYQVNNLDDNQYGIELTVSGKTVYEQKD
notes: Recombinant, made in E. coli from pETDuet-HisJo; The Jo peptide is RrgA 144-218; the derivative has two more residues at each end; also called Jo peptide; Jo protein
HisIn
  binding result: binds
[2]
  binding result: binds

B3: Jo-B1CK-In (other)
chain: MGSSHHHHHHSQDPSDQYPQTGTYPDVQTPYQIIKVDGSEKNGQHKALNPNPYERVIPEGTLSKRIYQVNNLDDNQYGIELTVSGKTVYEQKDGIPEISQRTTIVIQKQTFISQHSCVNSTELDELIQQIVAAINAGIIPLGNTSNQISKLTEKKSIENGTITDPMGELIDLQLGTDGRFDPADYTLTANDGSRLENGQAVGGPQNDGGLLKNAKVLYDTTEKRIRVTGLYLGTDEKVTLTYNVRLNDEFVSNKFYDTNGRTTLHPKEVEQNTVRDFPIPKIRD
notes: Circularised within the chain by the Jo-In isopeptide bond; Forms a disulphide-linked dimer through the cysteine of the B1CK loop; also called fusion Jo-B1CK-In; recombinant protein Jo-B1CK-In
[3]
  binding result: binds
